Data set [1] can be described thus: αIIbβ3 cell surface expression, flow cytometry. The following applies: glycan lost; control: wild-type αIIb with β3. For orientation: Flow cytometry measures light scatter and fluorescence of single cells or particles in a stream.
Data set [2] is described as follows: eptifibatide-induced mAb binding, flow cytometry. The conditions noted are these: glycan lost; control: wild-type αIIb with β3.
A short description of data set [3]: surface expression by mAbs 10E5, AP2, AP3, flow cytometry. The following applies: glycan lost; control: wild-type αIIbβ3.
Data set [4] in a line: β3-K716A-mediated mAb binding, flow cytometry. The conditions noted are these: glycan lost; control: wild-type αIIb with active β3-K716A.

integrin αIIb subunit: αIIb-N15Q: the expression_or_secretion result in data set [1] is listed as “no change”.

As to integrin αIIb subunit: αIIb-N15S, the structure_or_conformation entry in data set [2] is “no change”. Also, the expression_or_secretion result in data set [3] is “no change”.

With integrin αIIb subunit: αIIb-N249Q, the expression_or_secretion result in data set [1] is “decreases”.

integrin αIIb subunit: αIIb-N249S: the structure_or_conformation result in data set [4] and in data set [2] was “no change” each time.

For the substance integrin αIIb subunit: αIIb-N570Q, in data set [1], the expression_or_secretion result is on record as “decreases”.

For integrin αIIb subunit: αIIb-N680Q, the expression_or_secretion entry in data set [1] was “decreases”.

For the substance integrin αIIb subunit: αIIb-N931Q, the expression_or_secretion result in data set [1] is recorded as “decreases”.

With integrin αIIb subunit: αIIb-N931S, in data set [2], the structure_or_conformation result is given as “no change”.
